Data reported in the nanobody polyreactivity screen of Harvey et al. (2022).

Assay: yeast display, Sf9 membrane polyspecificity reagent, FACS + sequencing; frameworks hold sequencing errors
Summary of the method: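 Genes from sorted yeast were amplified by colony PCR, read by MiSeq 2 × 250 sequencing and filtered on CDR length. These cells carried a synthetic nanobody library in Saccharomyces cerevisiae BJ5465 and were sorted by FACS into low and high (top ~1%) gates on anti-HA and streptavidin fluorescence. Polyreactivity is labelled according to the gate of origin.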

Row | Sequence | polyreactivity (PSR sort gate)
1 | QVQLVDSAGGLVQAGGSLRLSCAAYGRTNYLYSMGWYRQAPGKERELVAAIRTGDGSTYYADSVKGRFTISRDNAKNTVYLQMISLKPEDTAVYYCAARVGKRYNWGQGTQVTVSS | high polyreactivity
2 | QVQLVDSGGCLVQAGGSLRLSCAASGSTFPTYAMGWYRQAPGKERELVAAITWSGGSTYYADSVKGRFTISRDNAKNTVYLQMNSLKPEDTAVYYCADSAYVQPYDYWGQGTQVTVSS | high polyreactivity
3 | QVQLVDSGGGFFQAGGSLRLSCAPSGITFVVYAMGWYRQAPGKERDLVAAITAGGSTYADSVKGRFTISRDNAKTTVYLQMNSLKPEDTAVYDCNTGLYLYVGLGDHDYWGQGTQVTVSS | low polyreactivity
4 | QVQLVDSGGGLDQAGGSLRLSCAASGSIFVSEYDMVWYIQAPGKERELVARSRWSSGSTYYADSVKGRFSISRDYAKNTVYVQMNSLKPEDTAVYYCNTVRTRERTDYDYWGQGTQVTVSS | low polyreactivity
5 | QVQLVDSGGGLDQAGGSLRLSCAASGSTFYYNAMGWYRQPPGKARELVARISRSGGSTYADSVKGRFTISRDNAMNTVYLQMNSLKPEDTAVYYCNADADGTPEFTSYSVRYDYWGQGSQVTVSS | low polyreactivity
6 | QVQLVDSGGGLLQAGGSLRLSCAASGNIFGRYAMGWYRQAPGKEREFVATITYSGGSTYYADSVKGRFTISRDNAKNTVYLQMNSLKPEDTAVYYCAARVGRPSLVAAKYDYWGQGTQVTVSS | high polyreactivity
7 | QVQLVDSGGGLLQAGGSLRLSCAASGRTCRGYAMGWYRQAPGKEWELVAAITSGGSTNYADSVKGRFTISRDNATNTVSIQMNRLKPEETAVYYCAAGRSTGQYRYYFWGLGTQVTVSS | high polyreactivity
8 | QVQLVDSGGGLLQAGGSLRLSCAASGSTFVAYAMGWYRQAPGKEREFVAGISSSTGGTRYADSVKGRFTISRDNAKNTVYLQMNSLKPEDSAVYYCAADLYFYYVWIRVYWGQGTQVTVSS | low polyreactivity
9 | QVQLVDSGGGLVLAGGSLRLSCAASGRTFAYYVMGWYREAPGKERELVAAISGRGGRTNYADSVKGRFTISRDNANNTVFLQMNSLKPEDTAVYYFAADLKLGTFNYWGQGTQVTVSS | high polyreactivity
10 | QVQLVDSGGGLVQAGCSLRLSCPASGGTFGYYAMGWYRQAPGKERELVAGINYSGGRTYYADSVKGRFTISRDNAMNTVYLKMDSLKPEDTAVYYCAAQAYVGYRGYDYWVQGTQVTVSS | high polyreactivity
11 | QVQLVDSGGGLVQAGGILSLSCASSGRTFYRYAMGWYRQAPGKERELVAAISATGCSTYYADSVKGRFTISRDNEKNTGYFQMNIMKPEDSAVDYCARGGTTLYWGQGTQLTVSS | high polyreactivity
12 | QVQLVDSGGGLVQAGGRLLLSCSDSGINIPYYAMGWYRQAPGKERELVASISYDGTSSYYADSVKGRFTISRDNAKNTVYLHLNSLKPEDTAVYYCAPVPWWPRASYSMDYWGQGTQVTLSS | low polyreactivity
13 | QVQLVDSGGGLVQAGGRLRLSCAASGFIIDWNTKGWYRQAPGKERELVAAITESSGSTYYADSVKGRFTISRDNAKNTVYLLMNSLKPVDTAVYYCGAELDVSVCFVSRFHFDYWGQGTQVTVSS | low polyreactivity
14 | QVQLVDSGGGLVQAGGRLRLSSAPTGSTFYVYLMGGYRQAHGKERELVAVIDWLGGSTYYADSVKGRFTISRDNAKNTVYLQLNSLKPEDTAVYYCYKDAQFYYNLPYYKERDWGQGTQVTVSS | low polyreactivity
15 | QVQLVDSGGGLVQAGGSHRLSCAASGRIFVAYAMGWYRQAPGKERELVAGISRGGSTYYADSVKGRFTISRDNAKNTVYLQMNSLKPEDTAVYYCATDQRVRRYDYWGQGTQVTVSS | low polyreactivity
16 | QVQLVDSGGGLVQAGGSHRLSCAASGSTFRRNAMGWYRQAPGKERELVAAITRGGSTNYADSVKGRFTISRDNAKNTVYLQMNSLNPEDTAVYYCARVYLGAYRERYVYPYDYWGQGTQVTVSS | high polyreactivity
17 | QVQLVDSGGGLVQAGGSISLSCAASGRTFFVNAMGWYRQAPGKERELVAAITRRGGITYYADSVKGRFTISRDNAKNTVYLQMNSLKPEDTAVYYCAADRSYYPDTRTTYGYNYWGQGTQVTVSS | low polyreactivity
18 | QVQLVDSGGGLVQAGGSLPLSCAASGSILLPYAMGWYRQAPGKERELVAALSQRGGSTYYADSVKGRFTISRDNAKNTVYLQMNSLKPEDTAVYYCNAVGGEHTPSQAFAGYDYWGQGTQVTVSS | low polyreactivity
19 | QVQLVDSGGGLVQAGGSLRLICAASGITFRHYAMGWYRTAPGKERELVAAITRRGGSTRYADSVKGRFTISRDNAKNTVYLQMNSLKPEDTAVYYCNAVYWSEGDWSERRDYWGQGTQVTVSS | high polyreactivity
20 | QVQLVDSGGGLVQAGGSLRLICAASGRIFYTNAMGWYRQAPGKERELVAAIDYSDSTTYYADSVKRRYTISRDNAKNTVYLQMNSLKPEDTAVYYCAAESYLYTVTFEYWGQGTQVTVSS | high polyreactivity
21 | QVQLVDSGGGLVQAGGSLRLICAASGRTFYYYAMGWYRQAPGKERELVAGISSGVSTTYADSVKGRFTISRDNAKNTVYLQLNSLKPEDTAFYYCAARWRPNRAYIGYDYWGQGTQVTVSS | low polyreactivity
22 | QVQLVDSGGGLVQAGGSLRLICAASGSTFYHYAMGWYRQAPGKERELVAAISSSGGRTYYADSVKGRFTISRDNAKNTVYLQMNSLKPEDTAVYYCAARAKTSGSIEDYWGQGTQVTVSS | high polyreactivity
